The text below walks through data of PMC5910394 (Nature Communications, 2018).

The assay concerns the target T1, HER2 on BT474 cells (Homo sapiens, BT474 cells, UniProt P04626).
T1 construct: HER2 (human epidermal growth factor receptor 2) on HER2-overexpressing BT474 breast cancer cells; source: endogenous, on BT474 cells
The assay can be described thus: flow cytometry on cells; BT474 cells with 1, 10 or 100 nM of the AF647-carrying memAb complex. The note with it: one partner purified. In general terms: Flow cytometry measures light scatter and fluorescence of single cells or particles in a stream.

B1: memAb pertuzumab IgG with pre-bound 5-diphenylalanine-meditope-Alexa-647 (complex)
VH: EVQLVESGGGLVQPGGSLRLSCAASGFTFTDYTMDWVRQSPGKGLEWVADVNPNSGGSIYNQRFKGRFTLSVDRSKNTLYLQMNSLRAEDTAIYYCARNLGDGFYAMDYWGQGTLVTVSS
VL: DIQLTQSPVILSASVGDRVTITCRAGESVDIFGVGFLHWYQQRTNGSPRLLIYRASNLESGVPSRFSGSGSRTDFTLTISSLQPEDEADYYCQQTNEDPYTFGAGTKVEIK
notes: as the heavy chain of Dm25; as the light chain of Dm25; as the peptide Dm26; non-covalent complex; source: IgG: ExpiCHO, purified; peptide: synthetic; copies: + +
For the molecule B1, the binding result is reported as “binds”.
